B1: Protein cup (Drosophila melanogaster (Fruit fly)), Q9VMA3 (parent)
chain: MQMAEAEQENGAGALKIATNAGATDRPAHQQLPLPVEDQQDEVLTPAEKGKFEYPPPPPPPTPVQAPLATKATALNASQEHDDDEANSEKWEDPCAPPPPPPLPTSAFLATGLGYLKLPAFKLKDALEKAITKLEANKRTLKASPESSRSIKNKNVVALEMLPRRSNPETIGDGSMLASTSTAVMLQTKKPAVIVEMERRCKIINLLAKQNQILESISGEAIPMHGPSKHLHEDEGLTLQVLSARASTPYTQPSSMLSCTAVSCDLEHDSPRKQVASKEAVPEQQSSQVQQKRPPSTGIHKPGSLRAPKAVRPTTAPVVSSKPVKSYTRSRLMDIRNGMFNALMHRSKESFVMPRIATCDDIELEGRLRRMNIWRTSDGTRFRTRSTTANLNMNNNNNNECMPAFFKNKNKPNLISDESIIQSQPPQPQTEFQDPAIVNQRRIGSGRLNHSKWGYNDEDYHSYHNGKSQHMEEVNSKNSKNMTVLQFFDNGEISSQPQRRPNTPVMGMSINRSENDTLHSNESSEDLSRANENYVKRVMSGFLVVSKPKSRDVEDRHHRRYRNQNEEPEWFSCGPTSRLDTIELCGFDEDEEKMLKEGNKNHGLGETERETSKQKMDHKYKWTHAEPMGRSKYMPKHDTNNNHNVENMNNVMATEHQQQKEEKRPGSGRSFQFDKFNQSQQNYESSSYVNHQQPPQTQPQQMQQQSNTNTNNSKFMSFFANEGNSSSSSLNEFFKQAINQGHGNNPEQPKSLGHIGQMPSVDQLEAKWRRNSLNNVGETANKQTDNFQKLIGSLSSAKPQSQAVGYDAISNFIMQQQQYQQQQQKQHLIIQQQQQHTAFLASLQLKAILGRADTQLLLLRLTKGEISKHGLLVQLANPRLTDMDREAITAVLQFTNTQQQQQQHKQQLDMLSSTVIASQLQNLHNLAIVQQTLAARQQPQHNPQTQAPHQLSQEDLQAHANVIMRNAVMKRKIEEQTSKLINGGAKHQAQQQYLNRGQQRQARPDANSNALLHALISGGGNNHASGYPMNGQPQKHHSNLRFGDNQNFQSFESNQPHFATQYKQQYQQSQQQHPHQQPQQLNSLHQNNAGAVNSFNKAQMQAQSAISMLPNSGDEFH
partner: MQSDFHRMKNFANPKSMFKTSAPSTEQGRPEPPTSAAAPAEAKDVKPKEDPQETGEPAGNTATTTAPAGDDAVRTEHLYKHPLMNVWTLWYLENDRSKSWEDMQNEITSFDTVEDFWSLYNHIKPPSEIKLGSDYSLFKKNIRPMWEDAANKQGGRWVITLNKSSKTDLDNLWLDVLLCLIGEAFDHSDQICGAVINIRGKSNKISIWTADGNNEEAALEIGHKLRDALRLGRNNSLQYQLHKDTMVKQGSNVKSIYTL
B2: Eukaryotic translation initiation factor 4E1 (Drosophila melanogaster (Fruit fly)), P48598 (parent)
chain: B1 partner
partner: B1 chain

These results are taken from IntAct's records for PubMed 14685270.

In the first assay the parent is B1. The conditions noted are these: with if4e_drome eIF4E1, P48598.
Take L364A;L368A: the “effect of a mutation on the interaction” value is “disrupting interaction”. Still for that read-out and setting: the entry for Y327A is “disrupting interaction”.

Another assay covers variants of B1. The conditions noted are these: with if4e_drome eIF4E1, P48598. This is another data set of the same source.
Take Y327A;L364A;L368A: the “effect of a mutation on the interaction” value is “disrupting interaction”. On the same count and under the same terms, the same measure for Y327A: “decreasing interaction”.

Another assay covers variants of B2. Conditions: with cup_drome cup, Q9VMA3.
In the case of E106A, the “effect of a mutation on the interaction” value is listed as “disrupting interaction”.
